# Source: patent US10683335B2, “Freeze-dried preparation containing high-purity PTH and method for producing same” (ASAHI KASEI PHARMA CORPORATION, priority 2011, dated 2020)
# Tests used:
# [1] = HPLC area percentage method: amount of PTH analogs in freeze-dried preparations and bulk drug (Test Example 1); type: physicochemical; settings: human PTH (1-34) bulk drug lot, HPLC peak area %
# Experimental: The area percentage method using HPLC is a simple method for assessing the purity of a freeze-dried preparation containing PTH peptide and the amount of analogs. A solution obtained by weighing out 0.25 g of benzalkonium chloride and bringing it to 50 mL by adding 50 mM sulfate buffer (pH 2.3) serves as the loading buffer. Each preparation of the examples and comparative examples is dissolved by 1 mL of physiological saline solution, and a 9:1 mixture of this solution and the loading buffer serves as the sample solution. A quantity of 100 μL of sample solution is tested by HPLC under the following conditions. Furthermore, benzalkonium chloride was used to prevent the peptide that is the target of measurement from attaching to the instrument and the like.
# Detector: Ultraviolet absorptiometer (measurement wavelength: 214 nm)
# Column: Stainless steel tube 150 mm long having an inner diameter of 4.6 mm packed with 3.5 μm of octadecylsilylated silica gel
# Column temperature: Constant temperature near 40° C.
# Mobile phase: Mobile phase A: Dissolve 28.4 g of anhydrous sodium sulfate in 900 mL of water and bring to 1000 mL by adding water after adding phosphoric acid to adjust the pH to 2.3. Add 100 mL of acetonitrile to this 900 mL of liquid.
# Mobile phase B: Dissolve 28.4 g of anhydrous sodium sulfate in 900 mL of water and bring to 1000 mL by adding water after adding phosphoric acid to adjust the pH to 2.3 Add 500 mL of acetonitrile to 500 mL of this liquid.
# Mobile phase feed: Concentration gradient control is provided by varying the mixture ratio of mobile phase A and mobile phase B as follows.
# Sample temperature: Constant temperature near 5° C.
# Detection time: 45 minutes after injection of the sample solution. However, this is from the back of the solvent peak.
# Calculation method: The amount of each PTH analog and the total amount thereof was determined by performing liquid chromatography under the above conditions, measuring each peak area by automatic integration, and performing calculation using Formulas 1 and 2. Furthermore, the total peak area was the sum total of the area of all peaks detected by performing liquid chromatography under the above conditions. […] Amount of each PTH analog (%)=(peak area of each analog/total peak area)×100 Formula 1: Total amount of PTH analogs (%)=(sum total of peak areas of each analog/total peak area)×100 Formula 2:
# [2] = Ozone exposure forced degradation of human PTH (1-34) solution (Test Example 2); type: physicochemical; settings: solution with sucrose and sodium chloride, stirred; ozone approximately 0.08 ppm, about 20 hours
# Experimental: A quantity of 4.00 g of sucrose and 0.20 g of sodium chloride were weighed out and dissolved by adding water for injection to make a placebo solution. […] An environment having an ozone concentration of approximately 0.08 ppm by ozone concentration meter was produced using an ozone generator and a blower (initial wind speed approximately 7.2 m/s) to circulate the ozone and make the concentration uniform in a tray having a 40 cm long×90 cm wide×100 cm high glass door. Approximately 15 mL of the reaction stock solution was dispensed into each 20 mL vial. […] Furthermore, the purity was confirmed in accordance with the test conditions of Test Example 1. The degraded solution was freeze dried, and a solution dissolved by a suitable amount of water for injection was taken as a forced-degradation solution. The analogs were fractionated under the following conditions using this solution.
compound,measurement,setting,value
human PTH (1-34) [lot H],Amount of (6) Human PTH (1-34)-Met 8 [O],[1]; listed as H,0.06%
same,Amount of (7) Human PTH (1-34)-Met 18 [O],[1]; listed as H,0.09%
human PTH (1-34) [lot D],Amount of (6) Human PTH (1-34)-Met 8 [O],[1]; listed as D,0.05%
same,Amount of (7) Human PTH (1-34)-Met 18 [O],[1]; listed as D,0.06%
human PTH (1-34) [lot G],Amount of (6) Human PTH (1-34)-Met 8 [O],[1]; listed as G,0.17%
same,Amount of (7) Human PTH (1-34)-Met 18 [O],[1]; listed as G,0.23%
human PTH (1-34) [lot E],Amount of (6) Human PTH (1-34)-Met 8 [O],[1]; listed as E,0.05%
same,Amount of (7) Human PTH (1-34)-Met 18 [O],[1]; listed as E,0.07%
human PTH (1-34) [lot B],Amount of (6) Human PTH (1-34)-Met 8 [O],[1]; listed as B,0.07%
same,Amount of (7) Human PTH (1-34)-Met 18 [O],[1]; listed as B,0.09%
human PTH (1-34) [lot F],Amount of (6) Human PTH (1-34)-Met 8 [O],[1]; listed as F,0.14%
same,Amount of (7) Human PTH (1-34)-Met 18 [O],[1]; listed as F,0.21%
human PTH (1-34) [lot A],Amount of (6) Human PTH (1-34)-Met 8 [O],[1]; listed as A,0.08%
CC[C@H](C)[C@H](NC(=O)[C@H](CCC(=O)O)NC(=O)[C@H](CO)NC(=O)[C@@H](NC(=O)[C@@H](N)CO)C(C)C)C(=O)N[C@@H](CCC(N)=O)C(=O)N[C@@H](CC(C)C)C(=O)N[C@@H](CCSC)C(=O)N[C@@H](Cc1cnc[nH]1)C(=O)N[C@@H](CC(N)=O)C(=O)N[C@@H](CC(C)C)C(=O)NCC(=O)N[C@@H](CCCCN)C(=O)N[C@@H](Cc1cnc[nH]1)C(=O)N[C@@H](CC(C)C)C(=O)N[C@@H](CC(N)=O)C(=O)N[C@@H](CO)C(=O)N[C@@H](CCSC)C(=O)N[C@@H](CCC(=O)O)C(=O)N[C@@H](CCCN=C(N)N)C(=O)N[C@H](C(=O)N[C@@H](CCC(=O)O)C(=O)N[C@@H](Cc1c[nH]c2ccccc12)C(=O)N[C@@H](CC(C)C)C(=O)N[C@@H](CCCN=C(N)N)C(=O)N[C@@H](CCCCN)C(=O)N[C@@H](CCCCN)C(=O)N[C@@H](CC(C)C)C(=O)N[C@@H](CCC(N)=O)C(=O)N[C@@H](CC(=O)O)C(=O)N[C@H](C(=O)N[C@@H](Cc1cnc[nH]1)C(=O)N[C@@H](CC(N)=O)C(=O)N[C@@H](Cc1ccccc1)C(=O)O)C(C)C)C(C)C [Human PTH (1-34)],Purity after exposure to ozone atmosphere,[2],approximately 20%
same,Total amount of human PTH (1-34) analogs after exposure to ozone atmosphere,[2],80%
